Measurements: US20200283482A1, “BICYCLIC PEPTIDE LIGAND PRR-A CONJUGATES AND USES THEREOF” (BicycleRD Limited, priority 2017, published 2020)
Starred links: 1 amine or outer side, 2 acyl side, 3 side chain; linkers in the order of their positions; H or OH if unused. Positions of bridges follow the written chain, without caps; N, C: chain ends. Non-standard residues stand in square brackets, D forms with d. Residues, ends and D or L forms follow the SMILES beside them. *: point of attachment. X9 = CCOCc1nc2c(NC(=O)[C@H](CCCCNC(=O)OCc3ccc(NC(=O)[C@H](CCCNC(N)=O)NC(=O)[C@@H](NC(=O)Cn4cc(CCC(=O)*)nn4)C(C)C)cc3)NC(C)=O)nc3ccccc3c2n1CC(C)(C)O; X13 = CCOCc1nc2c(NC(=O)N(C)CCN(C)C(=O)OCc3ccc(NC(=O)[C@H](CCCNC(N)=O)NC(=O)[C@@H](NC(=O)Cn4cc(CCC(=O)*)nn4)C(C)C)cc3)nc3ccccc3c2n1CC(C)(C)O; Resiquimod = CCOCc1nc2c(N*)nc3ccccc3c2n1CC(C)(C)O; 1Nal = N[C@@H](Cc1cccc2ccccc12)C(=O)O; TBMB = c1c(C[*:1])cc(C[*:3])cc1C[*:2]; Glutaryl = O=C(CCCC(=O)[*:2])[*:1]; Tle = CC(C)(C)[C@H](N)C(=O)O; βAla = NCCC(=O)O; Sar = CNCC(=O)O

How the values were obtained:
[1] = Blood stability, mouse; assay type: in vitro ADME, CD-1 mouse; conditions: male
Protocol: CD-1 mouse blood (n≥2, male, fasted overnight) is collected from animals housed at an internal facility. (EDTA-K2 is used as anticoagulant)
The test compounds and positive control stock solutions are prepared to 10 mM in DMSO or ultrapure water. Control compounds bisacodyl, enalapril and propantheline known to be metabolised by blood are also incubated alongside each batch of test compounds I-7, I-22, I-24, I-25, I-27, and I-29 to I-33. The dosing solutions of test compounds and controls are prepared by diluting the stock solution with 45% MeOH/H2O to achieve 100 uM. Test compound solutions (final incubation concentration=2 μM) are incubated with blood (final DMSO concentration≤1%) at six different time points (0, 1, 2, 4, 6 and 24 hours) in duplicate (n=2). The reaction is terminated by adding 100 uL ultra-pure water, mixing well, then adding 800 uL of 100% methanol containing 200 ng/mL tolbutamide and 200 ng/mL labetalol as internal standards. Samples are then vortexed and centrifuged at 3200×g for 20 minutes. Following centrifugation, the concentration of test compound in the supernatant is determined semi-quantitatively by LC-MS/MS. The percentage of test compound remaining at the individual time points relative to the 0 hour sample is then reported. The percent remaining of test compound after incubation in blood is calculated using following equation: Percent Remaining=100×(PAR at appointed incubation time/PAR at T0 time) where PAR is the peak area ratio of analyte versus internal standard (IS).

[2] = Plasma stability, human; assay type: in vitro ADME; conditions: human, plasma, pH 7.4
Protocol: (§1) The pooled frozen mouse, rat, dog, monkey or human plasma is thawed in a water bath at 37° C. prior to experiment. Plasma is centrifuged at 4000 rpm for 5 min and the clots are removed if any. […] For positive controls, 100 μM intermediate solution is prepared by diluting 20 μL of the stock solution with 180 μL 45% MeOH/H2O. […] For compounds I-7 to […]-17, […]-22, and […]-33, at each time point (0, 1, 2, 4, 6 and 24 hr), reactions were stopped by removing the plates from water bath and 200 μL 20 mM NH4OAC mix well first and then adding 800 μL of ice-cold stop solution (200 ng/mL Labetalol, 200 ng/mL Tolbutamide, 500 ng/mL N6-Ben and 40 mM DBAA in 100% Methanol). […] Sample plates were vortexed immediately on a plate shaker at 800 rpm for 10 min and then centrifuged at 4,000 rpm for 10 min. An aliquot of supernatant (200 μL) is transferred from each well before submitting to LC-MS/MS analysis. The percentage of test compound remaining at the individual time points relative to the 0 hour sample is calculated using following equation: Percent Remaining=100×(PAR at appointed incubation time/PAR at T0 time) where PAR is the peak area ratio of analyte versus internal standard (IS).

[3] = Plasma stability, cyno; assay type: in vitro ADME; conditions: cynomolgus monkey, plasma, pH 7.4
Protocol: as §1

[4] = Plasma stability, rat; assay type: in vitro ADME; conditions: rat, plasma, pH 7.4
Protocol: as §1

[5] = Plasma stability, mouse; assay type: in vitro ADME; conditions: mouse, plasma, pH 7.4
Protocol: as §1

Compound	half-life at 2 μM ([1]; CD-1, mouse) [h]	half-life at 2 μM [2] [h]	half-life at 2 μM [3] [h]	half-life at 2 μM [4] [h]	half-life at 2 μM [5] [h]	half-life at 2 μM ([1]; CD-1 mouse blood, 2 μM, read-out: T1/2 (mouse)) [h]
CCOCc1nc2c(NC(=O)N(C)CCN(C)C(=O)OCc3ccc(NC(=O)[C@H](CCCNC(N)=O)NC(=O)[C@@H](NC(=O)Cn4cc(CCC(=O)NCCC(=O)N(C)CC(=O)N(C)CC(=O)N(C)CC(=O)N(C)CC(=O)N(C)CC(=O)N(C)CC(=O)N(C)CC(=O)N(C)CC(=O)N(C)CC(=O)N(C)CC(=O)N[C@@H](C)C(=O)N[C@H]5CSCc6cc7cc(c6)CSC[C@H](NC(=O)[C@@H](C)NC(=O)[C@H](Cc6cccc8ccccc68)NC(=O)[C@H](CCC(=O)O)NC(=O)[C@H](CC(N)=O)NC(=O)[C@@H](C)NC5=O)C(=O)N[C@@H](CCC(=O)O)C(=O)N[C@@H](CC(=O)O)C(=O)N[C@@H](Cc5ccccc5)C(=O)N[C@@H](Cc5ccc(O)cc5)C(=O)N[C@@H](CC(=O)O)C(=O)N[C@@H](C(C)(C)C)C(=O)N[C@H](C(N)=O)CSC7)nn4)C(C)C)cc3)nc3ccccc3c2n1CC(C)(C)O [1-31] ({X13-βAla}-[Sar][Sar][Sar][Sar][Sar][Sar][Sar][Sar][Sar][Sar]AC[dA]NE[1Nal][dA]CEDFYD[Tle]C-NH2; linker 12-18-25 via TBMB)	6 to 24					
CCOCc1nc2c(NC(=O)[C@H](CCCCNC(=O)OCc3ccc(NC(=O)[C@H](CCCNC(N)=O)NC(=O)[C@@H](NC(=O)Cn4cc(CCC(=O)NCCC(=O)N(C)CC(=O)N(C)CC(=O)N(C)CC(=O)N(C)CC(=O)N(C)CC(=O)N(C)CC(=O)N(C)CC(=O)N(C)CC(=O)N(C)CC(=O)N(C)CC(=O)N[C@@H](C)C(=O)N[C@H]5CSCc6cc7cc(c6)CSC[C@H](NC(=O)[C@@H](C)NC(=O)[C@H](Cc6cccc8ccccc68)NC(=O)[C@H](CCC(=O)O)NC(=O)[C@H](CC(N)=O)NC(=O)[C@@H](C)NC5=O)C(=O)N[C@@H](CCC(=O)O)C(=O)N[C@@H](CC(=O)O)C(=O)N[C@@H](Cc5ccccc5)C(=O)N[C@@H](Cc5ccc(O)cc5)C(=O)N[C@@H](CC(=O)O)C(=O)N[C@@H](C(C)(C)C)C(=O)N[C@H](C(N)=O)CSC7)nn4)C(C)C)cc3)NC(C)=O)nc3ccccc3c2n1CC(C)(C)O [I-24] ({X9-βAla}-[Sar][Sar][Sar][Sar][Sar][Sar][Sar][Sar][Sar][Sar]AC[dA]NE[1Nal][dA]CEDFYD[Tle]C-NH2; linker 12-18-25 via TBMB)	6 to 24	> 24	> 24	6 to 24	6 to 24	
CCOCc1nc2c(NC(=O)CCCC(=O)NCCC(=O)N(C)CC(=O)N(C)CC(=O)N(C)CC(=O)N(C)CC(=O)N(C)CC(=O)N(C)CC(=O)N(C)CC(=O)N(C)CC(=O)N(C)CC(=O)N(C)CC(=O)N[C@@H](C)C(=O)N[C@H]3CSCc4cc5cc(c4)CSC[C@H](NC(=O)[C@@H](C)NC(=O)[C@H](Cc4cccc6ccccc46)NC(=O)[C@H](CCC(=O)O)NC(=O)[C@H](CC(N)=O)NC(=O)[C@@H](C)NC3=O)C(=O)N[C@@H](CCC(=O)O)C(=O)N[C@@H](CC(=O)O)C(=O)N[C@@H](Cc3ccccc3)C(=O)N[C@@H](Cc3ccc(O)cc3)C(=O)N[C@@H](CC(=O)O)C(=O)N[C@@H](C(C)(C)C)C(=O)N[C@H](C(N)=O)CSC5)nc3ccccc3c2n1CC(C)(C)O [I-25] ({Resiquimod-Glutaryl-βAla}-[Sar][Sar][Sar][Sar][Sar][Sar][Sar][Sar][Sar][Sar]AC[dA]NE[1Nal][dA]CEDFYD[Tle]C-NH2; linker 12-18-25 via TBMB)		> 24	> 24	> 24	> 24	> 24
